This is an account of results in patent publication US20040197334A1 (TECHNION RESEARCH AND DEVELOPMENT FOUNDATION, published 2004).

“And” between values parts separate entries of the source, which are not always exact repeats. Identical values can stand only once. No end group written: not given here.

Experiment [1] concerns the target T1, biotinylated target Pgp-derived peptide having the amino acid sequence of SEQ ID NO:1 (GEMTDIFANAGNL) (human, also: biotinylated, position not given here).
T1 construct: also called target peptide
T1 peptide: GEMTDIFANAGNL
Briefly: competition radioimmunoassay, cold A2 scFv against [125I]-labeled A2 scFv on plate-bound peptide; the filing calls the value the affinity constant.

Experiment [2] concerns the target T1, biotinylated target Pgp-derived peptide …. In words: saturation ELISA on plate-bound biotinylated peptide; the filing calls the value the affinity constant. (An ELISA detects its analyte on a solid surface through an enzyme-linked reagent.)
Experiment [3] addresses streptavidin (UniProt P22629 37-163). Briefly: ELISA, FIG. 1b.
The target in experiment [4] is T2, human P-glycoprotein (Pgp), 170 kDa, encoded by the mdr1 gene, on the surface of MDR human carcinoma cells … (human, UniProt P08183 1-1280).
T2 construct: whole, on cells; Overexpressed on the MDR cell lines 2780^ADR (ovarian carcinoma) and KBV-1 (epidermoid carcinoma); also called human cell surface-expressed Pgp
T2 sequence (P08183 whole entry): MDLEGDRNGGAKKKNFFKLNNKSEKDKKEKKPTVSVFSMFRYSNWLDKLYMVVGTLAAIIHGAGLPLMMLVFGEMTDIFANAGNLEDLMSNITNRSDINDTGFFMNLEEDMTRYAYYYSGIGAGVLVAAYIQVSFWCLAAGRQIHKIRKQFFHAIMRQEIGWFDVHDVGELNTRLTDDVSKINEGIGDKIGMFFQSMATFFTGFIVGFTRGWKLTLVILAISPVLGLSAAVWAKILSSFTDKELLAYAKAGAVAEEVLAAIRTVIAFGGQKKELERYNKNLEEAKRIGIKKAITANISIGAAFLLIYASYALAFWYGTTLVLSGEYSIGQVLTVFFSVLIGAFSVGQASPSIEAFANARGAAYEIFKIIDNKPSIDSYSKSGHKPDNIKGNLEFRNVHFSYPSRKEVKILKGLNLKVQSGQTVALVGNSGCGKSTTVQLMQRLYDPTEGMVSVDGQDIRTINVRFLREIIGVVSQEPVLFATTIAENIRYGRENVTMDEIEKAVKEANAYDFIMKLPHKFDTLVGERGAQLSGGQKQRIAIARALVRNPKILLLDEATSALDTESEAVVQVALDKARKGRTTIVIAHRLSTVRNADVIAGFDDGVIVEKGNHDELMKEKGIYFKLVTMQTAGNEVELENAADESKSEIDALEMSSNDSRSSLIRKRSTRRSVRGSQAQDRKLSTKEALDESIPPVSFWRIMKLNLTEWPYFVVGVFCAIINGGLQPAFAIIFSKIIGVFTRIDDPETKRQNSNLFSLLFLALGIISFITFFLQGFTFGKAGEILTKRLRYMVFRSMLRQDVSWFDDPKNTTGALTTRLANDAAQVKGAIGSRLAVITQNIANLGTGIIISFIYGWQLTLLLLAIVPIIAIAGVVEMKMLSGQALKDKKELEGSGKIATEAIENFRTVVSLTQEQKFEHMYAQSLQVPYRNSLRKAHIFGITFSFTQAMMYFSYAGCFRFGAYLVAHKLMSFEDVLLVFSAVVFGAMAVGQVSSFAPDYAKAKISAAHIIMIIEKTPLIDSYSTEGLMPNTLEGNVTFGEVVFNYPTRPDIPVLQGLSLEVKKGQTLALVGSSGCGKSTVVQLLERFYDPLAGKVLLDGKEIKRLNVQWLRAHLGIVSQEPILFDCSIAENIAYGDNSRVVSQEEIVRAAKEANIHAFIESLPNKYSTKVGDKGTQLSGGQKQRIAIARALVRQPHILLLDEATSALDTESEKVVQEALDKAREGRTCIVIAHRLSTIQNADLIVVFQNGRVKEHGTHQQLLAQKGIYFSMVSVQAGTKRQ
In words: flow cytometry on MDR, Pgp-overexpressing 2780^ADR cells, A2 scFv 50 µg/ml.

The target in experiment [5] is T2, human P-glycoprotein (Pgp), 170 kDa, …. Briefly: cell-based or functional assay.

Sequence of streptavidin (P22629 37-163 limits assumed): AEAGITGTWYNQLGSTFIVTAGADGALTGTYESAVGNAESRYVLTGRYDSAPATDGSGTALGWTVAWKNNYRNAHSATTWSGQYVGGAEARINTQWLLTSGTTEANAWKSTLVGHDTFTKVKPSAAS

B1: A2 single-chain Fv (scFv) (scFv)
scFv: QVQLQQSGPDLVKPGASVKISCKASGYSFTGYYMHWVKQSHGKSLEWIGRANPNNGGTSYNQKFKGKAILTVDKSSSTAYMELRSLTSEDSAVYYCARWDGAYWGQGTLVTVSSGGGGSGGGGSGGGGSDVVMTQTPLSLPVSLGDQASISCRSSQSIVHSNGNTYLEWYLQKPGQSPKLLIYKVSNRFSGVPDRFSGSGSGTDFTLKISRVEAEDLGVYYCFQGSHVPFTFGSGTKLELKEQKLISEEDLNHHHHHH
notes: Soluble monomeric scFv of about 30 kDa, expressed in E. coli BL21 and purified from the periplasm; In the radioimmunoassay the tracer was labeled with 125I by the Bolton-Hunter reagent; also called A2 scFv; A2 scFv antibody
Molecule B1 displayed an IC50 in experiment [1] of approximately 130 nM. For the same molecule, the EC50 in experiment [2] is approximately 150 nM. In experiment [3], the binding result is given as “no binding”. Besides, the “fold increase in fluorescent intensity” value in experiment [4] was 10 fold. Further, the “concentration of A2 scFv that inhibits 50% drug-efflux activity (IC50), calcein accumulation in 2780^ADR cells” value in experiment [5] is ~65 µg/ml and ~2.6 µM.

As usually defined, the IC50 is the point on the concentration scale where inhibition reaches its midpoint. A higher IC50 goes with weaker potency in that assay. A word on the EC50: it is the midpoint of the concentration-response curve.
